B1: gp44/62: T4 clamp-loader prepared by co-expressing gp44 and gp62 (protein, UniProt P04526 1-319; P04527 1-187, looked up)
Sliding-clamp-loader large …: MITVNEKEHILEQKYRPSTIDECILPAFDKETFKSITSKGKIPHIILHSPSPGTGKTTVAKALCHDVNADMMFVNGSDCKIDFVRGPLTNFASAASFDGRQKVIVIDEFDRSGLAESQRHLRSFMEAYSSNCSIIITANNIDGIIKPLQSRCRVITFGQPTDEDKIEMMKQMIRRLTEICKHEGIAIADMKVVAALVKKNFPDFRKTIGELDSYSSKGVLDAGILSLVTNDRGAIDDVLESLKNKDVKQLRALAPKYAADYSWFVGKLAEEIYSRVTPQSIIRMYEIVGENNQYHGIAANTELHLAYLFIQLACEMQWK
Sliding-clamp-loader small …: MSLFKDDIQLNEHQVAWYSKDWTAVQSAADSFKEKAENEFFEIIGAINNKTKCSIAQKDYSKFMVENALSQFPECMPAVYAMNLIGSGLSDEAHFNYLMAAVPRGKRYGKWAKLVEDSTEVLIIKLLAKRYQVNTNDAINYKSILTKNGKLPLVLKELKGLVTDDFLKEVTKNVKEQKQLKKLALEW
B2: T4LΔ(222–247)GS: internally truncated construct with a di-amino acid Gly-Ser substituted for residues 222–247 (protein)
chain: MILKILNEIASIGSTKQKQAILEKNKDNELLKRVYRLTYSRGLQYYIKKWPKPGIATQSFGMLTLTDMLDFIEFTLATRKLTGNAAIEELTGYITDGKKDDVEVLRRVMMRDLECGASVSIANKVWPGLIPEQPQMLASSYDEKGINKNIKFPAFAQLKADGARCFAEVRGDELDDVRLLSRAGNEYLGLDLLKEELIKMTAEARQIHPEGVLIDGELVYHGSAEVAESRTASNGIANKSLKGTISEKEAQCMKFQVWDYVPLVEIYSLPAFRLKYDVRFSKLEQMTSGYDKVILIENQVVNNLDEAKVIYKKYIDQGLEGIILKNIDGLWENARSKNLYKFKEVIDVDLKIVGIYPHRKDPTKAGGFILESECGKIKVNAGSGLKDKAGVKSHELDRTRIMENQNYYIGKILECECNGWLKSDGRTDYVKLFLPIAIRLREDKTKANTFEDVFGDFHEVTGL
modifications: left off: His6 (LEHHHHHH), C-terminal, kept
B3: T4 DNA ligase: Full-length wild-type T4 DNA ligase (residues 1–487) (protein, UniProt P00970 1-487, looked up)
chain: MILKILNEIASIGSTKQKQAILEKNKDNELLKRVYRLTYSRGLQYYIKKWPKPGIATQSFGMLTLTDMLDFIEFTLATRKLTGNAAIEELTGYITDGKKDDVEVLRRVMMRDLECGASVSIANKVWPGLIPEQPQMLASSYDEKGINKNIKFPAFAQLKADGARCFAEVRGDELDDVRLLSRAGNEYLGLDLLKEELIKMTAEARQIHPEGVLIDGELVYHEQVKKEPEGLDFLFDAYPENSKAKEFAEVAESRTASNGIANKSLKGTISEKEAQCMKFQVWDYVPLVEIYSLPAFRLKYDVRFSKLEQMTSGYDKVILIENQVVNNLDEAKVIYKKYIDQGLEGIILKNIDGLWENARSKNLYKFKEVIDVDLKIVGIYPHRKDPTKAGGFILESECGKIKVNAGSGLKDKAGVKSHELDRTRIMENQNYYIGKILECECNGWLKSDGRTDYVKLFLPIAIRLREDKTKANTFEDVFGDFHEVTGL
modifications: full-length
B4: E. coli LigA: E. coli NAD+-dependent DNA ligase (protein, UniProt P15042 1-671, looked up)
DNA ligase: MESIEQQLTELRTTLRHHEYLYHVMDAPEIPDAEYDRLMRELRELETKHPELITPDSPTQRVGAAPLAAFSQIRHEVPMLSLDNVFDEESFLAFNKRVQDRLKNNEKVTWCCELKLDGLAVSILYENGVLVSAATRGDGTTGEDITSNVRTIRAIPLKLHGENIPARLEVRGEVFLPQAGFEKINEDARRTGGKVFANPRNAAAGSLRQLDPRITAKRPLTFFCYGVGVLEGGELPDTHLGRLLQFKKWGLPVSDRVTLCESAEEVLAFYHKVEEDRPTLGFDIDGVVIKVNSLAQQEQLGFVARAPRWAVAFKFPAQEQMTFVRDVEFQVGRTGAITPVARLEPVHVAGVLVSNATLHNADEIERLGLRIGDKVVIRRAGDVIPQVVNVVLSERPEDTREVVFPTHCPVCGSDVERVEGEAVARCTGGLICGAQRKESLKHFVSRRAMDVDGMGDKIIDQLVEKEYVHTPADLFKLTAGKLTGLERMGPKSAQNVVNALEKAKETTFARFLYALGIREVGEATAAGLAAYFGTLEALEAASIEELQKVPDVGIVVASHVHNFFAEESNRNVISELLAEGVHWPAPIVINAEEIDSPFAGKTVVLTGSLSQMSRDDAKARLVELGAKVAGSVSKKTDLVIAGEAAGSKLAKAQELGIEVIDEAEMLRLLGS

Assays:
DNA substrate = assay: in vitro DNA ligation activity; format: biochemical
[1] = system: nicked substrates containing a single 5′-terminal ribonucleotide adjacent to the nick; conditions: cited from earlier work

| Molecule | ligation activity on nicked substrate with 5′-terminal ribonucleotide [1] | other results |
| --- | --- | --- |
| B1 | – | DNA ligase activity of the preparation (DNA substrate; control of gp45 and gp44/62 preparations, data not shown): no detectable DNA ligase activity |
| B2 | – | in vitro DNA ligation activity relative to wild-type (DNA substrate; vs wild-type T4 DNA ligase, Supplementary Figures S8, S10): comparable or slightly better |
| B3 | better ligation activity on the same substrate, although a fraction of the adenylated intermediate fail to complete the nick-sealing reaction | – |
| B4 | ligates this substrate as well as it does a regular DNA substrate | – |
